Results: publication PMC3790011, “Transcription Factor Reb1p Regulates DGK1-encoded Diacylglycerol Kinase and Lipid Metabolism in Saccharomyces cerevisiae*”

T1: Reb1p (His6-Reb1p) (Saccharomyces cerevisiae RS453, UniProt P21538 1-810)
T1 sequence: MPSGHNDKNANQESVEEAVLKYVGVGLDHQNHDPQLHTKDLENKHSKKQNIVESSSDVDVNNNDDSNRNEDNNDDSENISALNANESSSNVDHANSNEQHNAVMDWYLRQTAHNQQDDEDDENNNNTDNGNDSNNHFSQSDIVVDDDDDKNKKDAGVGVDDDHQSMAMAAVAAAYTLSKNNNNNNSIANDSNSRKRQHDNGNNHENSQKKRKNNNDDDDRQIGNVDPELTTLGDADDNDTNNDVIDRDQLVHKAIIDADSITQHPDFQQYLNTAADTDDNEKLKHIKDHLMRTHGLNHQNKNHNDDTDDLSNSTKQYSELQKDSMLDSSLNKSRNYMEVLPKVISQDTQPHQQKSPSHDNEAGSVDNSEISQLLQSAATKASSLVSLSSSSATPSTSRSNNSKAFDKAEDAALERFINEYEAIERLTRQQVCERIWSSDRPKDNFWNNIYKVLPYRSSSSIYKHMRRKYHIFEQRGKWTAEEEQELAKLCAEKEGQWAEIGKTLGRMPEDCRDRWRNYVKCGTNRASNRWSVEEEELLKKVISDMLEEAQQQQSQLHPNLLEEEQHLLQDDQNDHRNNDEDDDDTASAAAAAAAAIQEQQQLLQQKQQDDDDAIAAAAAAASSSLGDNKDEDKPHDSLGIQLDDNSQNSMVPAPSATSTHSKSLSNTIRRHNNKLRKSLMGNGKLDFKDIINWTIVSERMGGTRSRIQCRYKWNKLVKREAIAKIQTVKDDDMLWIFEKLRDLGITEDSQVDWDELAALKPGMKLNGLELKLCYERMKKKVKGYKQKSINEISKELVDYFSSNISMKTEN

B1: unlabeled DGK1 wild type competitor (dsDNA)
DNA 1: AGGGTCCATAGCGGGTAACAAATTATTGG
DNA 2: CCAATAATTTGTTACCCGCTATGGACCCT
B2: DGK1 promoter Reb1p site wild type (dsDNA)
DNA 1: AGGGTCCATAGCGGGTAACAAATTATTGG
DNA 2: CCAATAATTTGTTACCCGCTATGGACCCT

Key:
Reb1p (His6-Reb1p) [1] = molecular target: T1, Reb1p (His6-Reb1p); assay: competition; 10 mM Mg2+; 0.5 ug Reb1p, 4-16 pmol unlabeled competitor against 4 pmol labeled wild type probe; 10 mM Tris-HCl pH 8.0, 10 mM MgCl2, 50 mM KCl, 1 mM DTT, 0.025 mg/ml poly(dI-dC), 0.2 mg/ml BSA, 0.04% IGEPAL CA-630, 10% glycerol; 15 min, room temperature; 5% PAGE in 0.5x TBE; details: protein: recombinant; tags: N-terminal His6 (pET-15b); blunt
Reb1p (His6-Reb1p) [2] = molecular target: T1, Reb1p (His6-Reb1p); assay: EMSA; 10 mM Mg2+; 0.2-1.0 ug Reb1p, 4 pmol probe; 10 mM Tris-HCl pH 8.0, 10 mM MgCl2, 50 mM KCl, 1 mM DTT, 0.025 mg/ml poly(dI-dC), 0.2 mg/ml BSA, 0.04% IGEPAL CA-630, 10% glycerol; 15 min, room temperature; 5% PAGE in 0.5x TBE; details: protein: recombinant; tags: N-terminal His6 (pET-15b); label: 32P (alpha-32P dTTP, Klenow); blunt

Row | Binder | binding result (Reb1p (His6-Reb1p) [1]) | binding result (Reb1p (His6-Reb1p) [2])
1 | B1 | binds | –
2 | B2 | – | binds
